From the domain aggregation screens of Martell et al. (2025)

Assay: soluble fraction after stress (log2 fold change); higher = more stays soluble; pooled small domains, quantitative proteomics
Settings: stress: pH 4
How it was run: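 Pooled custom libraries of small protein domains were subjected to pH 4 and measured by high-throughput quantitative proteomics. The log2 fold change in soluble amount per domain is reported, higher values meaning more remained soluble. This is used as a measure of aggregation propensity.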

Row | Sequence | soluble fraction (log2)
1 | HMVLTYYSVLGVKTDATTEEIKSTYKQLAIRNHPDRGGSEEVMKMINLAAEILSDPKSRKEYDLSLDA | -1.48
2 | HMVLVLPGEMIHVQVIDEGKEMGQGVGYLDDGTMVVVENGLRHIGRAIDVQVTKVLQTNAGRMIFGQPIL | -0.952
3 | HMVMAELRISVDRLQIGNYIKLPLSWRDHPFLLSSFMIKKEEQIQLIRQLRLKHVFIIPEKSDAPPKPA | -1.81
4 | HMVMNYKKIGKKIADRRILLGITQEELAEKVDSSANYISNIETGIKSGSLIFYIKVANELKLSLDFLFSDE | -0.363
5 | HMVMPTGRVRYYDAEKGFGFLSKDSGGDDVYVRSSALPAGVTSLKRGQKVEFGIIDGKRGEQALSVHLL | 0.0712
6 | HMVMTTVPEVLGMDIRTAASMLTGKNLKYDYDLVESDKPKDEVIEQDQAKGTEVPEGTVVKLKVSKGPA | 0.247
7 | HMVMTTVPEVLGMDISKAASLLTGKNLDYDYDLVESDKPKDQVIEQDVVKGTEVPEGTVIHLKVSKGPA | -0.0925
8 | HMVMVVDVLKALSNNSSDKFFNTSISNAIKAQEDSQEDFVTLFGIEYEKLSPNNGLAVIFTSQ | -0.816
9 | HMVNDDTIAATEAEILALLADKHRHHITELNSIRRPYEQIDAALSSLINEEKIFQEDGMLFV | -0.908
10 | HMVNGEFIDRIKVILQENNATRKKDRLTKTRMYQLLQEEGYEGSYSAFTYQVRIIEEELGINNK | ≥ 0.43
11 | HMVNSIQIHKKLRLDKRAGSDNWYARLTLPNGKRLVKTTKTEDIETAKEVALRLYYEVDARIQNKLPAT | -0.158
12 | HMVPADVQHLRDIVDTMTEKQQLVYKLHVLEGYTFTEIAKLMGTSIPNVKKHYDKAILFIKNNF | -0.165
13 | HMVPEEEATKISVQNVGASDYNFTVKGVQANDPTLTLVRGKTYEFDVTSLGHPFWIKTQKVTGSSSQY | -0.139
14 | HMVPLSPRFFDIFRKRKDLTRQNVDVYFRDHPTEITAFERYIKGLVSQSYIPAERADALLLVASQYKAK | 0.0777
15 | HMVPSTAVIFTELVSMRSEPATKSPVTHQLTKGTAITINEEKDGWYQVTDQTGNSGWIVKWAVKPTYFTNP | 0.31
16 | HMVPTYEAYVGKEGLVVGTLRPAGTAEFDGERLDVVSEGEYLEAGTRVQIVRTEGRRIVVRKIN | -0.233
17 | HMVPVVGTTIPHEFIGKFGSARVMLKPAVEGSGVIAGGSARAVLELAGYKDIKTKVLGTNNPRNVVYATMN | 0.196
18 | HMVQDDDPNSVAKFIDQVIESNPEQVEQYRSGKEKVFNFFLGQTMRLSKGKANPDLVSELLKEKLS | -0.00692
19 | HMVQIQDIAFSEFLNELEKGNILDVNIKGDLINGNMLDGKKFKTYAPYDPSLVEKLSKQNVTINVEPVN | -0.06
20 | HMVQMKIRAYELEPNDFFIKQNMTYRVMRIQNGMIYAKHLLNSTPITFGAKSMEFVLWTGKYS | -1.05
21 | HMVQQTEEDVIRDMYVEGKIFTIGEEVTDTYTGVTGKIIRRGTNYVTFMSEDGETYKKWLYEIELA | -1.82
22 | HMVRDGDTFVVPKMDRFARNVEDTLHLVRELTERGVIFQMGHTVYDPHDPWSKLFLTFLAAIAEA | 0.191
23 | HMVREVGYNAFLAMLDSGAVKEVARDESEGQITFLATDEKGKERVYKTGIWPDDTLTERLNTAGVEFA | -0.941
24 | HMVREVSYDQFLHFVEAKQVGMVYQDGESLMFTLKEDVEKEWGVTAYKTGLWPDANLTDRLLDAGVVFS | -1.65
25 | HMVRGNLAEELLKLREEEGISFQEAGARSGIARSTISQVVNQGLRLKPNQEESLWRVIEEVRGVKER | -0.0263
26 | HMVRSEDLIGLQGRITLATDVETRGFVELSVKGSLLRRPALSLKGPLAKNTAVVVTASNDHTLEVEAL | -0.77

Row | Sequence | soluble fraction (log2)
27 | HMVRSKLEIVPVPEDAVVKIAGLKRLTYQAYQNEDVPYMVYKNGYEAQSGTVFMDTDKTLTVTLEESP | 0.151
28 | HMVSAMLLHKKEILNLLAEEPEALHFASLLRAFGGRHIKNELKQIVDDLVRSGEILRLRGNRYTLPGADN | -0.149
29 | HMVSATKAFVNGGNIVVSSPKATRVAVYNVAGQKVAEQAFAGKATIKASDFAKGIYVLKFNDNTVLKLT | -0.0226
30 | HMVSDAELTSQATTAITAYPGTSVEVKEGQAHLSGTFATEADKQAAIDALKKIQDVKDVHDMATV | 0.0294
31 | HMVSDSAELSAFVADVIKENAQAVADYKGGKTNVFGWLMGQIIKKSGGKATPAAAAALLKAELEK | -0.14
32 | HMVSKQVTVNGIQYYQYTVQKSEGFYAISTKFGVTQDDIILANPSTKEGLRVGQEILIPIKT | -0.0976
33 | HMVSLLDWAYKQVRRMLFSGDLPQGQKIVVAQLANQLSISPTPVKEALNRLAVEGLLEAVPRRGFQVR | -1.02
34 | HMVSQELIMLGNRIREYRKERGFSQEILAEKSGVSTNTISRIEGGQMAMSVGILQRIVKALGVDANVMLG | 0.12
35 | HMVSQKPKERELWFREQLELAGLRLDPHAISAINETLGNDTGRFPGIIDTLLSTYGAGKKLSYDDVVMFL | -1.8
36 | HMVSRAFEEETVKRAESGNQEAALFALELAIREIEHSYEKSKIIDYFVSKVRLFLDNGVSLERALGIH | -0.0689
37 | HMVSRKIENPYWANKEKQHIIAEFFYPDTNKRVTASIMNDGSNRDYEEILRGYSIEQIDANTNRRLEER | -0.811
38 | HMVSSEGLASGIERMLVEFGLETDKGRRFAMWSLLYMLGSAPDLDVAFKDPRDREAARTFMDLLDQANA | -0.99
39 | HMVSSVAAISQMIDEKDRYTSEHSHRVAEYARLIGAHMGFAGEELDSLYRSALLHDIGKIAVPDAILNK | -0.417
40 | HMVSTDPVHLFNLGTANRRAGRASEAITSYRKFMEAAPQHPQVPEARAYIHDMEVLLQERQKSEQAASQLS | -0.0261
41 | HMVSTSVTVTGDLNVRADSRADSDLVGALIPGQTVTRLAVLDNGWSKIRFDDGAGTVVEGYVLSEYLQADG | 0.131
42 | HMVSVEINTVERDETFRKMFTSGWKPENRIQALAVEQAKKNGLGRMSEVAGLASFRGIWKQATEQVALEA | -0.0443
43 | HMVSVLDHIVGIGAKRRQSLWNHFGTIDKIKAASIDELLKAPGMNRPSAEAVYYFFEAQRQLRGK | 0.0106
44 | HMVTEKNALTIEIEDLTKRFGNQRESLLPILQEVQLKHGHISDFAQQEIARLLDIHPVEVYGVVTFFSFLS | -2.43
45 | HMVTGSIYERKGIYYAIVSYYVDGRRKQKSVSTGLSVKGNKRRALEFLENLKRTYETKESMENMD | ≥ 0.43
46 | HMVTIEEMMDRLLTRVQRAVNMSFSEFSGEAKEKVEVIVSFLALLELVKQGAVDVLQHENFSDIRIENT | -0.841
47 | HMVTKQKKLVLTIIERSHGHLSAEEIFFRAREEMPNIALGTVYRNLNSLTEEGIVRRITLPGTSDRFDT | -0.506
48 | HMVTKTTYAYERLKREIMDGTLGQGEKLVVNAISQRYQVSPMPIREALLKLEQEGLVQSAPHRGAWVHK | 0.0193
49 | HMVTNELFGTRLRAFRKEKGLTIEQLAERVGLSPNYLGDIERGKKLPSMATFIRLVNELDISADEL | 0.174
50 | HMVTQVDYGTFLTRIDEGKVKSVEIQDNQIAFTAIDEAGKENIYVTGKVNDPELVDRLLAADIEDFSQVIP | -1.29
51 | HMVTTTEAAKMLLVNAGHDVIKDGLTGASWASNTMKLADADGLLASVATKPNDALPRQYAAQMIYN | 0.265
52 | HMVVANTAIKSELQNIVANENKQAPLSDQKIVDQLKQAGFDISRRTVVKYRDALGIPTSRNRKR | 0.112

Row | Sequence | soluble fraction (log2)
53 | HMVVEGMQFDRGYLSQYMVTDNEKMVADLENPYILITDKKISNIQEILPLLESILQSSRPLLIIADD | -0.573
54 | HMVVGYRYVTNVANAVNFRQKPSASSTIITTIPYGTRIGYVEDANSEYARVKYDNMYGYVAKFYLSNYSPP | 0.276
55 | HMVVLNQEQIKFIDHYLQVSKVRYVDVRSELTDHIATAVELKMQDEALDFYEAFKAFIAVNKSQLLQRN | -0.975
56 | HMVVNERIKKLRRSLDLTQQEFADRIGVKRNTIANYEIGRNEPIDSVLELIVREFGVSKQWLLDGTGEMF | 0.0586
57 | HMVVPRSFKYEVLAHGGWAGNAQRYQTKEEALHAGLALSRRWTAVEDYRAVPSDDLPNQPAL | 0.127
58 | HMVVPSNPDELKGSFSLAEVASGYGLEVAAILEKAGWPADTDPNVKMRDAANAIGRDSTDIRNAVKALLKS | -0.468
59 | HMVVVPPPATPKPGDVTGDNKINGYDLSILLSNWKRPGATLAQGDLNKDGVVNGLDLSIMLLNWG | 0.0857
60 | HMVVYDAELLLNINPGMSYEEVKEMLGDPGMIIAGNDAENSVYRWSTGGISFMGRFENGALIRKSIISP | -0.916
61 | HMVWNVEQIKRAVDQLPDGYRVVFTLYLFEGYDHREIADILGISEGGSKSQFNRAKSKLKEILTAMS | -1.2
62 | HMVWTAGEVVERIRERVGHPATIRELMQVLTIPPEDRHRFRRRIMQLVEAGELIRIRGNRYGLAD | 0.124
63 | HMVYNGYYAKSFNGYVVILNGDEKTVYEYTQIPIHLLPEDIRSSVMSGYYLENETDLYNFLENYS | -0.211
64 | HMWAVDFVLLDKDDQRIGNAVAYRDDRTKGMDEEVYRTVPEEELYASTGIQKQIFNSIYQLMAWKK | -1.25
65 | HMWDRFGELDSAEEINRIAAAELREGDIDALKVLAEENGLDKDDVEDYIDRLIDELTTPELAAIGKLDV | -0.0336
66 | HMWKQISSEAELLPAVRSVIQANPGEAEKLRNGEMAPLEFLTGLVMKKTNGMAVPQIVKTLIKKELKI | 0.0805
67 | HMWKSEAGKKIIESLAQKYNKSNAQIILRWHIQMGYIVIPGARSENHIKENINIFDFKLTNEEINNILKLN | -0.124
68 | HMWMTAQDFRNSSLPWSATTSYNEGQSVRVVDGSNTYYYIAIVKTQPGQSPTTHPTSWREVDA | 0.311
69 | HMWNLPDPVVRPEGNVTVYENFKNTVEVLNREADLVLKFLQNEFGTSANIDDTGRARLTGSFSTDRVSSVI | -0.529
70 | HMWSNTAVIDRIRQLHEEGQPISSQSVQVNHKSLYMAAIKRFRGWKRAVEAAGIDYRQIRLR | 0.404
71 | HMWWTPIILRDALFGVQRFEDFQKNLDVSRATLSSRLTRLVDEGLMEKVEYQQHPVRHEYVLTEKGR | 0.194
72 | HMYAGTWTTESGQWKYRQDDGTYAKGWLQDTDGRWYYFDANGRMLSNTATPDGYQVGEDGAWVNH | -0.651
73 | HMYAMTAEDWIVSGNRKYINDDLQGAIADYTKAIEIDPNYAAIYLVRGKAKYELKNYQGAIEDYTKAIE | -1.48
74 | HMYAPKIETIQVPQDKIREVIGTGGKVIREIVETTGAKIDIGDTGLIKVASSDGEAIRAALDWINSIVAE | -0.758
75 | HMYATQLLQLEEMGFFDRAENIRALRATNGNVNAAVERL | -0.114
76 | HMYDASELNKALEEAKKLDLNNYTEESSEALKNAISKAEEALLSKDKETINSALEELNKAMDSL | -0.615
